± gives the uncertainty stated by the source.
Experiment: self-splicing fitness, log relative to wild type (ln ratio); higher = more splicing; Tetrahymena group I intron in knt gene, E. coli kanamycin selection, DiMSum; sequences stand for … in CUCUCU…GGAGGGAAAAGUUAUCAGGCAUGCACCUGGUAGCUAGUCUUUAAACCAAUAGAUUGCAUCGGUUUAAAAGGCAAGACCGUCAAAUUGCGGGAAAGGGGUCAACAGCCGUUCAGUACCAAGUCUCAGGGGAAACUUUGAGAUGGCCUUGCAAAGGGUAUGGUAAUAAGCUGACGGACAUGGUCCUAACCACGCAGCCAAGUCCUAAGUCAACAGAUCUUCUGUUGAUAUGGAUGCAGUUCACAGACUAAAUGUCGGUCGGGGAAGAUGUAUUCUUCUCAUAAGAUAUAGUCGGACCUCUCCUUAAUGGGAGCUAGCGGAUGAAGUGAUGCAACACUGGAGCCGCUGGGAACUAAUUUGUAUGCGAAAGUAUAUUGAUUAGUUUUGGAGUACUCGUGGUCG
Summary of the method: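 Library with all eight P1ex-region intron nucleotides randomised, intron inside the knt kanamycin-resistance gene on pET-22b(+), in E. coli BL21(DE3). Cells grew overnight at 37°C or 30°C on LB agar with or without 25 μg/mL kanamycin (plus 100 μg/mL carbenicillin, 50 μM IPTG, 0.2% rhamnose), in six replicate transformations. Pooled colonies were amplicon-sequenced on Illumina HiSeq 2500. DiMSum fitness is the error-weighted combination of wild-type-normalised replicate fold changes, kanamycin versus none.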

Row | Sequence | self-splicing fitness (ln) (30 °C) | self-splicing fitness (ln) (37 °C)
1 | UACCAGCAAUAUUACGUAAA | -0.982 ± 0.071 | -0.408 ± 0.097
2 | AUGAAGCAAUAUUACGAUGC | -1.95 ± 0.13 | -0.813 ± 0.17
3 | AGGAAGCAAUAUUACGAGAA |  | -1.39 ± 0.32
4 | AUUCAGCAAUAUUACGGCUG | -1.86 ± 0.2 | -2.59 ± 0.31
5 | GCGGAGCAAUAUUACGUCGU | -4.11 ± 0.35 | -2.24 ± 0.36
6 | UUCCAGCAAUAUUACGCCCU |  | -2.93 ± 0.49
7 | GUUGAGCAAUAUUACGCCUU | -2.32 ± 0.28 | -1.78 ± 0.36
8 | ACUGAGCAAUAUUACGAAUA | -2.97 ± 0.28 | -2.65 ± 0.29
9 | GUCAAGCAAUAUUACGCUGC |  | -3.33 ± 0.27
10 | GGAUAGCAAUAUUACGCGUA | -0.646 ± 0.21 | -2.02 ± 0.18
11 | GCAAAGCAAUAUUACGCUAU | -2.57 ± 0.23 | -1.06 ± 0.17
12 | GUCGAGCAAUAUUACGCGGA | -3.08 ± 0.29 | -1.25 ± 0.19
13 | UCCUAGCAAUAUUACGCCAG | -3.13 ± 0.26 | -2.68 ± 0.26
14 | CAUAAGCAAUAUUACGGUCU | -2.8 ± 0.3 | -1.51 ± 0.2
15 | UAAAAGCAAUAUUACGAGCA | -0.549 ± 0.088 | -0.276 ± 0.1
16 | CUAUAGCAAUAUUACGACCA | -3.1 ± 0.29 | -2.44 ± 0.35
17 | GCCUAGCAAUAUUACGUAGC | -0.323 ± 0.11 | -0.445 ± 0.11
18 | GCUAAGCAAUAUUACGUCUU | -1.18 ± 0.13 | 0.136 ± 0.13
19 | GCCAAGCAAUAUUACGCACC | -0.566 ± 0.22 | 0.932 ± 0.41
20 | AUUUAGCAAUAUUACGAGAC | -2.44 ± 0.39 | 
21 | UUGUAGCAAUAUUACGCCUU | -0.585 ± 0.17 | 0.0387 ± 0.17

Row | Sequence | self-splicing fitness (ln) (30 °C) | self-splicing fitness (ln) (37 °C)
22 | AAAAAGCAAUAUUACGUUGU | -3.71 ± 0.15 | -2.01 ± 0.14
23 | AAGUAGCAAUAUUACGGUUC | -2.75 ± 0.19 | -2.08 ± 0.23
24 | UCGGAGCAAUAUUACGAAGG | -2.58 ± 0.45 | 
25 | AUUAAGCAAUAUUACGUGGU | -2.42 ± 0.16 | -2.29 ± 0.19
26 | AAGAAGCAAUAUUACGACAA | -0.745 ± 0.098 | -0.224 ± 0.12
27 | CAACAGCAAUAUUACGUGAC | -4.28 ± 0.22 | -2.23 ± 0.15
28 | AUAUAGCAAUAUUACGUGCC | -1.82 ± 0.38 | -1.01 ± 0.41
29 | GGAUAGCAAUAUUACGGCCA | -0.925 ± 0.19 | -0.211 ± 0.18
30 | UAUGAGCAAUAUUACGACAC |  | -1.97 ± 0.41
31 | GUGGAGCAAUAUUACGCGAA | -3 ± 0.39 | -1.09 ± 0.27
32 | CCAUAGCAAUAUUACGACCU | -2.92 ± 0.33 | -1.28 ± 0.41
33 | AUUUAGCAAUAUUACGGCGA | -0.579 ± 0.12 | 0.144 ± 0.11
34 | AAUCAGCAAUAUUACGGGCC | -3.19 ± 0.44 | -2.58 ± 0.28
35 | UGAUAGCAAUAUUACGUAAC | -3.41 ± 0.17 | -2.76 ± 0.22
36 | GGCGAGCAAUAUUACGCGUA | -1.09 ± 0.17 | -0.484 ± 0.15
37 | AAUUAGCAAUAUUACGGGUA | -1.52 ± 0.11 | -0.428 ± 0.098
38 | UCUCAGCAAUAUUACGCGGA | -2.54 ± 0.37 | -2.46 ± 0.29
39 | ACCUAGCAAUAUUACGAGAG | -2.34 ± 0.13 | -0.462 ± 0.08
40 | CUAAAGCAAUAUUACGCACA | -2.11 ± 0.16 | -2.11 ± 0.27
41 | AUAUAGCAAUAUUACGCUCU | -0.66 ± 0.18 | -0.594 ± 0.18
42 | UACGAGCAAUAUUACGAGUA | -2.84 ± 0.15 | -2.52 ± 0.15

Row | Sequence | self-splicing fitness (ln) (30 °C) | self-splicing fitness (ln) (37 °C)
43 | GCCUAGCAAUAUUACGUACC | -1.18 ± 0.099 | -0.205 ± 0.12
44 | CUAGAGCAAUAUUACGCAGU | -2.58 ± 0.12 | -3.17 ± 0.2
45 | AGAUAGCAAUAUUACGUUUG | -3.06 ± 0.23 | -1.21 ± 0.17
46 | UCUAAGCAAUAUUACGUCUC |  | -3.38 ± 0.4
47 | UAUCAGCAAUAUUACGCGCU | -2.73 ± 0.21 | -1.76 ± 0.23
48 | UGUAAGCAAUAUUACGACCU | -0.205 ± 0.13 | -0.0468 ± 0.12
49 | ACGAAGCAAUAUUACGCCAC | -3.08 ± 0.19 | -2.56 ± 0.28
50 | CGUAAGCAAUAUUACGGGAC | -2.9 ± 0.29 | -2.47 ± 0.41
51 | CACUAGCAAUAUUACGCUGU | -3.17 ± 0.14 | -3.3 ± 0.23
52 | CAAGAGCAAUAUUACGUCCC |  | -1.59 ± 0.28
53 | UCCAAGCAAUAUUACGUUAA | -2.37 ± 0.12 | -0.463 ± 0.1
54 | CCAUAGCAAUAUUACGAGCG | -0.63 ± 0.095 | -2.73e-06 ± 0.12
55 | AACCAGCAAUAUUACGUUAU | -2.18 ± 0.055 | -0.941 ± 0.058
56 | GCCUAGCAAUAUUACGUGUG | -1.85 ± 0.057 | -0.937 ± 0.065
57 | GGUAAGCAAUAUUACGCAUU | -1.86 ± 0.14 | -0.797 ± 0.12
58 | UGCAAGCAAUAUUACGAAUC | -3.56 ± 0.29 | 
59 | UCAGAGCAAUAUUACGUGUU | -4.84 ± 0.27 | -2.27 ± 0.17
60 | AGGGAGCAAUAUUACGCUAG | -2.36 ± 0.31 | -0.612 ± 0.41
61 | CAGGAGCAAUAUUACGUGCG | -1.56 ± 0.079 | -0.807 ± 0.088
62 | AAAUAGCAAUAUUACGAAUC | -2.64 ± 0.18 | -2.29 ± 0.22
63 | ACAUAGCAAUAUUACGAACC | -1.16 ± 0.13 | -1.13 ± 0.2

— the supplement of paper PMC7877785
